Laboratory results reported in publication PMC8065591, “SPECT Imaging of SST2-Expressing Tumors with ^99mTc-Based Somatostatin Receptor Antagonists: The Role of Tetraamine, HYNIC, and Spacers” (Pharmaceuticals, 2021).
Where a SMILES comes first, the peptide text is derived from it. Bridges are numbered along the chain shown (N, C = ends). [ ]: non-standard residue; d: D form. The star is where a group is joined. dPhe(4-NHCONH2) = NC(=O)Nc1ccc(C[C@@H](N)C(=O)O)cc1; Dihydroorotyl(S) = O=C1C[C@@H](C(=O)*)NC(=O)N1; Phe(4-Cl) = N[C@@H](Cc1ccc(Cl)cc1)C(=O)O; Phe(4-NH2) = Nc1ccc(C[C@H](N)C(=O)O)cc1; HYNIC = NNc1ccc(C(=O)*)cn1; Ahx = NCCCCCC(=O)O

Experiments:
[1] = type: physicochemical
Experimental: In general, all JR11-based radiotracers were more hydrophilic than the corresponding SS01-based radiotracers. […] [^99[…] was excluded from further studies. […] In a pre-lubricated Eppendorf tube, a pre-saturated mixture of 500 μL 1-octanol and 500 μL of phosphate-buffered saline (PBS) at pH 7.4 was added. An amount of 10 μL of 1 μM radiotracer solution was added to this mixture, followed by vortexing of the tube at room temperature for 15 min to reach equilibrium. Centrifugation for 15 min at 3000 rpm was performed for separation of the phases. Aliquots of 100 μL were removed from the octanol and from the PBS phase, and the activity measured in a γ-counter. The partition coefficient was calculated as the average log ratio value of the radioactivity in the organic fraction and PBS fraction.

HEK-SST2 tumors = system: HEK-SST2 tumors; parameters: species or system mice; conditions: mouse, in vivo
Experimental: The Veterinary Office (Department of Health) of the Cantonal Basel-Stadt approved the animal experiments (approval no. 30515) in accordance with the Swiss regulations for animal treatment. Female athymic nude-Foxn1nu/Foxn1+ mice (Envigo, The Netherlands), 4-6 weeks old, were injected subcutaneously with 10^7 HEK-SST2 cells in the right shoulder, freshly suspended in 100 μL sterile phosphate-buffered saline. The tumors were allowed to grow for 2-3 weeks. Mice bearing HEK-SST2 tumors were euthanized 1 or 4 h after intravenous injection of 4-6 MBq (200 pmol) of the ^99mTc-labeled conjugates and imaged supine, head first, using a SPECT/CT system dedicated to imaging small animals (NanoSPECT/CT^TM Bioscan Inc.). Topograms and helical CT scans of the whole mouse were first acquired using the following parameters: X-ray tube current: 177 μA, X-ray tube voltage 45 kVp, 90 s and 180 frames per rotation, pitch 1. The helical SPECT scan was then acquired from head to toe using multi-purpose pinhole collimators (APT1). The energy window width was 20%, centered symmetrically over the energy peak of ^99mTc at 140 keV. Twenty-four projections (200 s per projection) were used, allowing acquisition of at least 50 kilocounts/projection. […]

SST2 = conditions: cited from earlier work

Compound | Log D (pH = 7.4) [1] | also measured
C[C@@H](O)[C@@H]1NC(=O)[C@H](CCCCN)NC(=O)[C@@H](Cc2ccc(NC(N)=O)cc2)NC(=O)[C@H](Cc2ccc(NC(=O)[C@@H]3CC(=O)NC(=O)N3)cc2)NC(=O)[C@H](NC(=O)[C@H](Cc2ccc(Cl)cc2)NC(=O)CCCCCNC(=O)c2ccc(NN)nc2)CSSC[C@@H](C(=O)N[C@H](Cc2ccc(O)cc2)C(N)=O)NC1=O [[^99mTc]Tc-HYNIC-Ahx-JR11, metal not drawn] ({HYNIC-Ahx}-[Phe(4-Cl)][dC][Phe(4-NH2)](Dihydroorotyl(S))[dPhe(4-NHCONH2)]KTC[dY]-NH2; disulfide 2-7) | −3.15 ± 0.06 | 
C[C@@H](O)[C@@H]1NC(=O)[C@H](CCCCN)NC(=O)[C@@H](Cc2c[nH]c3ccccc23)NC(=O)[C@H](Cc2ccc(O)cc2)NC(=O)[C@H](NC(=O)[C@H](Cc2ccc(Cl)cc2)NC(=O)CCNC(=O)c2ccc(NN)nc2)CSSC[C@@H](C(=O)N[C@H](Cc2ccc(O)cc2)C(N)=O)NC1=O [[^99mTc]Tc-HYNIC-β-Ala-SS01, metal not drawn] | −1.91 ± 0.19 | washout from the tumor on SPECT/CT images (in words) (HEK-SST2 tumors): very fast washout from the tumor
C[C@@H](O)[C@@H]1NC(=O)[C@H](CCCCN)NC(=O)[C@@H](Cc2c[nH]c3ccccc23)NC(=O)[C@H](Cc2ccc(O)cc2)NC(=O)[C@H](NC(=O)[C@H](Cc2ccc(Cl)cc2)NC(=O)c2ccc(NN)nc2)CSSC[C@@H](C(=O)N[C@H](Cc2ccc(O)cc2)C(N)=O)NC1=O [[^99mTc]Tc-HYNIC-SS01, metal not drawn] | −2.21 ± 0.07 | 
C[C@@H](O)[C@@H]1NC(=O)[C@H](CCCCN)NC(=O)[C@@H](Cc2ccc(NC(N)=O)cc2)NC(=O)[C@H](Cc2ccc(NC(=O)[C@@H]3CC(=O)NC(=O)N3)cc2)NC(=O)[C@H](NC(=O)[C@H](Cc2ccc(Cl)cc2)NC(=O)c2ccc(NN)nc2)CSSC[C@@H](C(=O)N[C@H](Cc2ccc(O)cc2)C(N)=O)NC1=O [[^99mTc]Tc-HYNIC-JR11, metal not drawn] ({HYNIC}-[Phe(4-Cl)][dC][Phe(4-NH2)](Dihydroorotyl(S))[dPhe(4-NHCONH2)]KTC[dY]-NH2; disulfide 2-7) | −2.88 ± 0.11 | 
C[C@@H](O)[C@@H]1NC(=O)[C@H](CCCCN)NC(=O)[C@@H](Cc2c[nH]c3ccccc23)NC(=O)[C@H](Cc2ccc(O)cc2)NC(=O)[C@H](NC(=O)[C@H](Cc2ccc(Cl)cc2)NC(=O)CCCCCNC(=O)c2ccc(NN)nc2)CSSC[C@@H](C(=O)N[C@H](Cc2ccc(O)cc2)C(N)=O)NC1=O [[^99mTc]Tc-HYNIC-Ahx-SS01, metal not drawn] | −1.96 ± 0.06 | 
Cpa-c(DCys-Aph(Hor)-DAph(Cbm)-Lys-Thr-Cys)-DTyr-NH2 [JR11] |  | affinity for SST2 (in words) (SST2): high affinity
C[C@@H](O)[C@@H]1NC(=O)[C@H](CCCCN)NC(=O)[C@@H](Cc2c[nH]c3ccccc23)NC(=O)[C@H](Cc2ccc(O)cc2)NC(=O)[C@H](NC(=O)[C@H](Cc2ccc(Cl)cc2)NC(=O)CCOCCOCCOCCOCCNC(=O)c2ccc(NN)nc2)CSSC[C@@H](C(=O)N[C@H](Cc2ccc(O)cc2)C(N)=O)NC1=O [[^99mTc]Tc-HYNIC-PEG4-SS01, metal not drawn] | −2.03 ± 0.13 | 
C[C@@H](O)[C@@H]1NC(=O)[C@H](CCCCN)NC(=O)[C@@H](Cc2c[nH]c3ccccc23)NC(=O)[C@H](Cc2ccc(O)cc2)NC(=O)[C@@H](NC(=O)[C@@H](Cc2ccccc2)NC(=O)c2ccc(NN)nc2)CSSC[C@@H](C(=O)N[C@H](CO)[C@@H](C)O)NC1=O [[^99mTc]Tc-HYNIC-TOC, metal not drawn, reference compound] |  | logD ([1]; pH 7.4): -2.77 ± 0.07
